Values quoted from earlier work in patent publication US7850723B1, “Method and apparatus for patient temperature control employing titration of therapy using EEG signals” (Innercool Therapies, Inc., priority 2005, dated 2010).

B1: tissue plasminogen activator (protein, UniProt P00750 36-562, looked up)
Tissue-type plasminogen …: SYQVICRDEKTQMIYQQHQSWLRPVLRSNRVEYCWCNSGRAQCHSVPVKSCSEPRCFNGGTCQQALYFSDFVCQCPEGFAGKCCEIDTRATCYEDQGISYRGTWSTAESGAECTNWNSSALAQKPYSGRRPDAIRLGLGNHNYCRNPDRDSKPWCYVFKAGKYSSEFCSTPACSEGNSDCYFGNGSAYRGTHSLTESGASCLPWNSMILIGKVYTAQNPSAQALGLGKHNYCRNPDGDAKPWCHVLKNRRLTWEYCDVPSCSTCGLRQYSQPQFRIKGGLFADIASHPWQAAIFAKHRRSPGERFLCGGILISSCWILSAAHCFQERFPPHHLTVILGRTYRVVPGEEEQKFEVEKYIVHKEFDDDTYDNDIALLQLKSDSSRCAQESSVVRTVCLPPADLQLPDWTECELSGYGKHEALSPFYSERLKEAHVRLYPSSRCTSQHLLNRTVTDNMLCAGDTRSGGPQANLHDACQGDSGGPLVCLNDGRMTLVGIISWGLGCGQKDVPGVYTKVTNYLDWIRDNMRP
B2: α2-antiplasmin (protein, UniProt P08697 40-491, looked up)
Alpha-2-antiplasmin: NQEQVSPLTLLKLGNQEPGGQTALKSPPGVCSRDPTPEQTHRLARAMMAFTADLFSLVAQTSTCPNLILSPLSVALALSHLALGAQNHTLQRLQQVLHAGSGPCLPHLLSRLCQDLGPGAFRLAARMYLQKGFPIKEDFLEQSEQLFGAKPVSLTGKQEDDLANINQWVKEATEGKIQEFLSGLPEDTVLLLLNAIHFQGFWRNKFDPSLTQRDSFHLDEQFTVPVEMMQARTYPLRWFLLEQPEIQVAHFPFKNNMSFVVLVPTHFEWNVSQVLANLSWDTLHPPLVWERPTKVRLPKLYLKHQMDLVATLSQLGLQELFQAPDLRGISEQSLVVSGVQHQSTLELSEVGVEAAAATSIAMSRMSLSSFSVNRPFLFFIFEDTTGLPLFVGSVRNPNPSAPRELKEQQDSPGNKDFLQSLKGFPRGDKLFGPDLKLVPPMEEDYPQFGSPK

Columns and labels:
clots [1] = details: clots treated with 2.5 μg/ml tPA; incubated at 37, 25, 10, 0 and −8° C.
clots [2] = details: tPA 0.3, 1.0 and 3.0 μg/ml; incubated at 24° C. to 40° C.
plasmin = plasmin (Homo sapiens, UniProt P00747)
plasmin, sequence (P00747 581-810 limits assumed, species assumed): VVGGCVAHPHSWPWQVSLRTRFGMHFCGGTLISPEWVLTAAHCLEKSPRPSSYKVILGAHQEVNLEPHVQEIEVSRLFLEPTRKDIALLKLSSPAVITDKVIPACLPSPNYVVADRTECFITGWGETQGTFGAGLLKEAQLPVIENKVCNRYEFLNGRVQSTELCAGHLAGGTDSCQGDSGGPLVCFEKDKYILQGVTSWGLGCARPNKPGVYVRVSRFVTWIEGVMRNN
plasmin, sequence (P00747 97-580 partner limits assumed, species assumed): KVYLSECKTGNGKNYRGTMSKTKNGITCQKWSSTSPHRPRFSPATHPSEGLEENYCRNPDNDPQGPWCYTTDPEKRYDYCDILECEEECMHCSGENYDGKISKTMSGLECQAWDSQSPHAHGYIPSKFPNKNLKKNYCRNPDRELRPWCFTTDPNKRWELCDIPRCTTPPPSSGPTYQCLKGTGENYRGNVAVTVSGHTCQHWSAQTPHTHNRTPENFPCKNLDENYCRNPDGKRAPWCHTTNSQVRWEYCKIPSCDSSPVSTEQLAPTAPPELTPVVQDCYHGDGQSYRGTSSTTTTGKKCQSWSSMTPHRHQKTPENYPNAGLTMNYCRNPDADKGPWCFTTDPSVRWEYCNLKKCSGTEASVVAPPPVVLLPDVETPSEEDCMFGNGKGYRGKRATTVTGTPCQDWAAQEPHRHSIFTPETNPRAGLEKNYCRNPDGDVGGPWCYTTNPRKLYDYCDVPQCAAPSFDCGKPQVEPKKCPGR

Row | Molecule | plasminogen activation (clots [1]) | amount of clot lysis (clots [2]) | time required to inactivate plasmin bound to a fibrin surface (plasmin)
1 | B1 | relatively high at low temperatures | the amount of clot lysis at lower temperatures was less than that at higher temperatures | –
2 | B2 | – | – | about 10 seconds
